Laboratory results as given in patent US10393755B2, “Compositions and methods for treating eye infections and disease” (UNIVERSITY OF VIRGINIA PATENT FOUNDATION, priority 2014, dated 2019).

Legend:
[1] = system: NOD mice corneal epithelium; assay: Murine corneal abrasion and recovery study; assay type: in vivo, mouse
Method: Briefly, 12 week female NOD mice were anesthetized with an i.p. injection of xylaxine/ketamine (60-70 mg+5 mg/kg) and placed on a heating pad. After cleaning the ocular surface with eye wash (OCuSOFT, Inc., TX), the corneal epithelium of the right eye was removed down to the basement membrane using an algerbrush II (The Alger Company, Inc., TX); the left eye was left intact as a contra lateral control. Mice were allowed to heal for 24 h with 2 doses ([…]) of KSFM medium containing BPE (50 mg/ml) and EGF (5 ng/ml), […] LSI, […] SI, or no treatment at 12 h intervals. After staining the ocular surface with […] 0.6 mg/ml fluorescein (Akorn, Ill.), images of the abrasion wound were captured using a Moticam 2300 camera after 12 h and 24 h.

HCE-T cells = assay: Ca2+ imaging (Fluo-4 AM); assay type: cell-based, human
Method: SV40-immortalized HCE-T cells (Riken Cell Bank, Japan) were grown in keratinocyte-SFM media (KSFM, Life Technologies, Rockville, Md.) containing bovine pituitary extract (BPE, 50 mg/ml) and epidermal growth factor (EGF, 5 ng/ml). Cell passages 4-6 were used for Ca2+ imaging, scratch and uptake assays in 35 mm coverslip-bottomed dishes. To optimize responsiveness upon stimuli, cells were starved with EGF and BPE free medium for 24 h before experimentation.
HCE-Ts were rinsed twice with Ca2+ and Mg2+ free phosphate buffer saline (PBS) and incubated at 37° C. for 20 min fresh KSFM medium containing […] calcium probe Fluo-4 AM (Invitrogen Life technologies, NY). […] The cells were illuminated at 488 nm, and their emission was monitored every 3.15 s at 510 nm using Zeiss LSM 510 Meta confocal microscope system. The field of interest contained 24 to 45 cells, and the fluorescent intensity change was calculated for each region with image-analysis software. Ca2+ dynamics were evaluated using the changes in fluorescence intensity of Fluo-4 AM. The data are presented as percentage change in fluorescence intensity at each time point (Ft) to the first time point (F0) reading: (Ft−F0)/F0×100%.

[2] = Phase behavior and nanoparticle formation (optical density, DLS, TEM); assay type: physicochemical; parameters: Phase transition temperature / Tt1, critical micelle temperature (CMT): dose or concentration left out as unconfirmed
Method: The phase diagram for LSI fusion protein was characterized by optical density change at 350 nm as a function of solution temperature using a DU800 UV-Vis Spectrophotometer (Beckman Coulter, Brea, Calif.). Tt was defined at the point of the maximum first derivative. Self-assembly of nanoparticles was measured using dynamic light scattering (DLS) using a DynaPro-LSR Plate Reader (Wyatt Technology, Santa Barbara, Calif.). Light scattering data were collected at regular temperature intervals (1° C.) as solutions were heated from 5 to 50° C. The results were analyzed using a Rayleigh sphere model and fitted into a cumulant algorithm based on the sum-of-squares value.
The TEM imaging was carried out on a FEI Tecnai 12 TWIN microscope (Hillsboro, Oreg.) at 100 kV. Briefly, a 100 uM solution (5 uL) was initially deposited on a copper grid with carbon film (CF400-Cu, Election Microscopy Sciences, Hatfield, Pa.). After removing the excess amount of solution with filter paper, the samples were negatively stained with 2% uranyl acetate, followed by removing excess uranyl acetate after 30 s. b The samples were then dried under room temperature for at least 3 h before use in imaging.

HCE-T monolayers = assay: In vitro scratch closure assay; assay type: cell-based, human; details: 10 nM, 24 h, compared to plain medium without growth factors
Method: For a scratch assay, confluent HCE-T monolayers were scraped in a straight line to create a scratch wound with a p200 pipet tip. Cells were rinsed with KSFM medium without BPE or EGF to remove debris and then incubated with fresh KSFM medium containing BPE (50 mg/ml) and EGF (5 ng/ml), LSI, or medium without growth factors (No treat). Phase contrast images of the wound at the beginning and after 24 h treatment were captured using Zeiss LSM 510 Meta confocal microscope system.

HCE-Ts = assay: Exogenous cell uptake assay (rhodamine labeled); assay type: cell-based, human; details: NHS-rhodamine labeled
Method: SI and LSI nanoparticles were conjugated with NHS-rhodamine (Thermo Fisher Scientific Inc, Rockford, Ill.) via covalent modification of the amino terminus. Conjugation was performed in 100 mM borate buffer (pH 8.0) for 2 h (LSI) or overnight (SI) at 4° C. followed by desalting on a PD10 column (GE Healthcare, Piscataway, N.J.) to remove free dye. Briefly, after the cells were rinsed with fresh medium without BPE and EGF, […] rhodamine labeled proteins were added into the dish. After incubation at 37° C. for different time points, the cells were rinsed and images were acquired using Zeiss LSM 510 Meta confocal microscope system.

B1: LSI: lacritin fused to diblock ELP (VPGSG)48(VPGIG)48; forms thermoresponsive nanoparticles (protein)
chain: GEDASSDSTGADPAQEAGTSKPNEEISGPAEPASPPETTTTAQETSAAAVQGTAKVTSSRQELNPLKSIVEKSILLTEQALAKAGKGMHGGVPGGKQFIENGSEFAQKLLKKFSLLKPWAGLVPRGSGVPGSGVPGIGY
modifications: ELP lacritin fusion construct; (129)..(133) the sequence VPGSG is directly repeated 48 times; (134)..(138) The sequence VPGIG is directly repeated 48 times
notes: forms thermoresponsive nanoparticles
[1]; 5 ml of 100 mM topical at 0 and 12 h, 12 and 24 hours, compared to SI, EGF+BPE, no treatment
  Percentage of initial wound area (PctArea): significantly decreased
[1]; 12 h, eight mice per group
  Abrasion wound healing, LSI compared with LS96: significantly (p<0.05) faster
[1]; hematoxylin and eosin
  Corneal epithelium histology after 24 h: complete recovery
HCE-T cells; Fluo-4 AM loaded HCE-T cells
  Maximum fluorescence intensity change compared to baseline (F0): 4.399+/−1.043 fold
HCE-T cells; same concentration, second time, from 40
  Ca2+ influx peak duration on second treatment: 70 s
[2]
  Tt1, critical micelle temperature (CMT): 32.3 °C
[2]; DLS, 37° C.
  Hydrodynamic radius compared with LS96: much larger hydrodynamic radius than LS96
[2]; above Tt
  Nanoparticle size by DLS above Tt: 130-140 nm
[2]; below Tt
  Nanoparticle size by DLS below Tt: 30-40 nm
[2]; dried from room temperature
  Average diameter by TEM: 67.1+/−11.5 nm
[2]; optical density
  Phase transition temperature: 18.4 °C
HCE-T monolayers
  Scratch wound healing: significantly accelerated scratch wound healing
HCE-Ts
  Cytosolic fluorescence (cell uptake): significantly higher cytosolic fluorescence than SI nanoparticles
  Time to significant cell entry: 10 m
